This assay has as its target UU-30. The assay can be described thus: cell-based or functional assay.

B1: X-SM083-bi-12 (bispecific antibody)
heavy: EVQLLESGGGLVQPGGSLRLSCAASGFTFSSYAMSWVRQAPGKGLEWVSGIGGSSSYTSYADSVKGRFTISRDNSKNTLYLQMNSLRAEDTAVYYCARYYSYHMDYWGQGTLVTVSSASTKGPSVFPLAPSSRSTSESTAALGCLVKDYFPEPVTVSWNSGALTSGVHTFPAVLQSSGLYSLSSVVTVPSSNFGTQTYTCNVDHKPSNTKVDKTVERKCCVECPPCPAPPVAGPSVFLFPPKPKDTLMISRTPEVTCVVVDVSHEDPEVQFNWYVDGVEVHNAKTKPREEQFNSTFRVVSVLTVVHQDWLNGKEYKCKVSNKGLPAPIEKTISKTKGQPREPQVYTLPPSREEMTKNQVSLTCLVKGFYPSDIAVEWESNGQPENNYKTTPPMLDSDGSFFLYSKLTVDKSRWQQGNVFSCSVMHEALHNHYTQKSLSLSPGKGGGGSGGGGSQVQLQQPGAELVMPGASVNLSCKASGYTFTDYWMHWVKQRPGQGLEWIGEIDPSDNFSNLNQNFRGKATLTVDKSSRTAFLQLSSLTSEDSAVYYCAVEDYWGQGTTLTVSSGGGGSGGGGSGGGGSGGGGSDIVMTQATPSVLVTPGEAVSISCRASRSLLHSNGITYLYWFLQRPGQSPQVLIYRMSNLVSGVPDRFSGSGSGTAFTLRISRVEAEDVGVYYCMQHLEFPYTFGGGTKLEIK
light: DIQMTQSPSSLSASVGDHVTITCRASQSISSYLNWYQQKPGKAPKLLIYAASSLQSGVPSRFSGSGSGTDFTLTISSLQPEDFATYYCQQYGSAPPTFGQGTKLEIK
Consider B1, for which the “t1/2 (min) of UU-30 in mouse plasma (LC-MS/MS)” value turned out to be 424 min.

B2: X-SM083-bi-9 (bispecific antibody)
heavy: not shown
light: DIQMTQSPSSLSASVGDHVTITCRASQSISSYLNWYQQKPGKAPKLLIYAASSLQSGVPSRFSGSGSGTDFTLTISSLQPEDFATYYCQQYGSAPPTFGQGTKLEIK
As for B2, the “t1/2 (min) of UU-30 in mouse plasma (LC-MS/MS)” value stood at 1340 min.

These data come from patent US20220000998A1 (STRIKE PHARMA, published 2022).
